Series [1] in a line: Self-healing tests of assembled scaffolds after mechanical rupture. Conditions: recovery of scaffold stiffness after mechanical rupture. In kind it is physicochemical. The procedure: (§1) Rheological properties were determined for the peptides of the invention, using a controlled stress TA Instruments AR-2000ex rheometer (TAInstruments). A cone-and-plate geometry (acrylic cone diameter, 20 mm; angle, 1°; truncation gap 34 μm) was used. All measurements were obtained at a constant monitored temperature of 25° C. Preliminary strain sweeps were performed for each sample to define the linear viscoelastic region, thus ensuring that moduli were independent of strain. Time sweeps, after addition of PBS (1×) were recorded at constant angular frequency (ω=1 Hz). Frequency sweeps, both for peptide water solutions and for self-assembled scaffolds, were performed with the instrument in oscillatory mode at controlled strain of 1%. Final: onset point of rupture was calculated by linear interpolation and subsequent determination of the intersection of the G′ modes in the linear region and at material rupture respectively. G′ values were averaged in the 1-100 Hz region and between n=3 independent replicates. During self-healing tests the self-assembled scaffold was torn by applying a strain sweep (0.01%-1000% strain range) at 1 Hz oscillatory frequency. G′ values were is recorded in frequency sweep mode (at 1% strain) or, in time sweep mode (at 1 Hz and at 1% strain), before and after the strain sweep step, subsequent observations were performed every half hour or, in case of time sweep test, every 30 seconds. In all of the SAPs the difference between the storage moduli measured before and after PBS addition spanned from two to four orders of magnitude, proving the dramatic biomechanical changes taking place during scaffold gelation. Peptide B3 (1%) yielded a solid stiff scaffold (G′=2917 Pa), supporting the idea that ionic charges may screen the electrostatic repulsions given by positively charged lysine residues and speed up the spontaneous ongoing self-assembling process, on its turn giving an already viscous (G′=67 Pa) and opaque solution at day 1. Among the peptides giving soft scaffold (100 Pa-1000 Pa range) peptides 4, B19, B25, B28 and 30 were included. On the opposite side, SAPs yielding solid stiff scaffolds are B15, B22, B24, B27 and 31 (5000 Pa-9000 Pa range).
Solid scaffolds were obtained via addition of PBS (1×) in a cone-and-plate rheometer; we measured the storage modulus, the samples were subjected to a strain sweep (0.01% to 1000%) until and far beyond rupture occurred (i.e. is monitoring the sudden drop of G′ value). Samples were then left in place (keeping them hydrated with PBS) and their G′ were measured every 30 minutes via frequency sweep tests in the range of 0.1 Hz to 60 Hz. As a negative control KLD-12, a well-known SAP, was tested (4, 6). […] In FIG. 6b peptide B25 (3% w/v concentration) was assessed for self-healing in a time sweep mode, every 30 seconds, at 1 Hz and at 1% strain. Values of G′ recovered after 100 minutes (1000 Pa) and steadily plateaued over time. For peptides B3, B22, B25 and B27 full recovery was obtained at different time intervals after rupture, ranging from 60′ to 240′. Similar results were confirmed by multiple independent experiments, but at different time ranges, for all of the self-assembling peptides except for B19 and B28.
Samples were checked for rupture by tilting. After a maximum of four hours all of the samples returned to their solidified gel appearance. This healing could be repeated at will.

The subject of series [2] is human Neural Stem Cells (hNSCs). Kind of series: Phase contrast imaging of hNSC morphology on scaffolds. In kind it is cell-based. Conditions: 7 days in vitro. On the procedure:
(§2) In vitro tests were performed following a previously adopted methodology (5). Briefly, cells (at a concentration of 6×10^4 cells/cm^2) were seeded on the top-surface of each assembled scaffold previously assembled into 96 multiwells. Initially, cells were cultured with basal medium supplemented with βFGF (10 ng/ml), added to enhance neuronal progeny differentiation. At 3 days in vitro (DIV), βFGF medium was replaced with Leukemia Inhibitory Factor (LIF, Chemicon) (20 ng/ml) and Brain Derived Neurotrophic Factor (BDNF, Peprotech) (20 ng/ml). Fresh medium was added every three days. Positive and negative controls consisted of CULTREX-BME® substrate (R&D systems) (1:100 dilution in basal medium) and untreated bottom well surfaces respectively.
(§3) To assess the potential of the proposed SAPs for cell cultures and, more generally, for regenerative medicine, a two-dimensional cell culture protocol already developed for RADA16-I-like peptides was adapted (5). Briefly, human Neural Stem Cells (hNSCs), mechanically dissociated 1 day before plating, were seeded and cultured for one week in vitro over self-assembled scaffolds of B3, 4, B15, B17, B19, B22, B24, B25, B27, B28, 30, 31 and over non-coated tissue culture plastic wells (negative control).

Series [3] is described as follows: Macro-scale scaffold formation upon exposure to PBS / neutral pH buffer. The settings on record: upon exposure to PBS (1×) / neutral pH buffer. In kind it is physicochemical. The text has this: The tested peptides solutions appearance ranged from peptides giving clear liquid is solutions (e.g. 4, B15, B19, B25, B28, 30) to samples which become opaque in 1 to 7 days after dissolution (e.g. B3, B17, B22, B24, B27, 31) as shown in FIG. 2a (I). Most of the liquid solutions increased in viscosity over the first week after dissolution, however after ten days in water no appreciable changes happened at the macroscale.
(§4) Nonetheless, keeping constant the observation time, the storage moduli of peptide solutions previously dissolved (the day before) at 3% w/v were measured. Measurements were obtained of these peptide solutions, further diluted to 1% w/v at the same day of the experiment (unless otherwise specified), and, after addition of PBS, of the formed scaffolds.

For series [4], the system named is human Neural Stem Cells (hNSCs). Kind of series: CellTiter 96 Aqueous Proliferation Assay of hNSCs on self-assembled scaffolds. The settings on record: 7 DIV, n=6, versus negative control (plastic). In kind it is cell-based. The procedure: Neural precursor cultures are established and expanded as previously described (15, 16). Human neural stem cells (NSCs) were isolated from the central nervous system, in particular from the diencephalon and the cerebral cortex of human brain 10.5 weeks from conception. The modalities for obtaining the primary tissue are in agreement with the guidelines of the European Network for Transplantation (NECTAR).
as §2
Cell viability was quantified via […] 96® Aqueous Proliferation Assay (Promega, Madison, Wis.) at 7 DIV as recommended in the Promega protocol. After calibrating the linear response between the cell number and absorbance values, proliferated cell populations were quantified (n=6) by using a Vmax microplate reader (Molecular Devices, Sunnyvale, Calif.) at 490 nm wavelength. Values, reported as means±standard error of the mean, were blanked to their respective controls consisting of same substrates and cell culture media without cells.
as §3

The nature of series [5]: Rheological tests (storage modulus G′, cone-and-plate rheometer). In kind it is physicochemical. Conditions: for storage modulus G′ of assembled scaffold (G′ post-assembling): after PBS (1×) addition, averaged in 1-100 Hz range, 25° C., B3 at 1%. The procedure: as §1
The mechanical properties of the synthesized peptides were tested with a cone-and-plate rheometer. Firstly, the G′ dependence of peptide water solutions on concentration increments, and consequently aggregation kinetics, was assessed as shown in FIG. 2b.
as §4

A short description of series [6]: Solubility and behaviour on dissolution in water. In kind it is physicochemical. From the text:
All of the synthesized peptides are soluble at 1% w/v concentration in distilled water and in acid (0.1 M HCl) solutions.

“Also recorded” adds a separate entry of the source. [ ]: non-standard residue; d: D form. The star is where a group is joined. Biotin = O=C1N[C@H]2[C@H](CS[C@H]2CCCCC(=O)*)N1; NHPr = CCCN*

For “Ac-WGGGAFSSTKT-CONH2 (Ac-WGGGAFSSTKT-NH2) [peptide 31]”, the self-healing property result in series [1] is recorded as “self-healing property has been seen”. Also, the “cell morphology / degree of spreading” value in series [2] was “branched cells”. In addition, the “solid scaffold / hydrogel formation” value in series [3] is reported as “yielded solid scaffolds”. Further, the “living cell population / hNSC viability (CellTiter assay)” value (from here on “living cell population / hNSC viability”) in series [4] is given as “comparable to the biotinilated peptides”.
For “Ac-WGGGPFSSTKT-CONH2 (Ac-WGGGPFSSTKT-NH2) [peptide 4]”, the self-healing property result in series [1] is on record as “self-healing property has been seen”. For the same substance, the “solid scaffold / hydrogel formation” value in series [3] is “yielded solid scaffolds”. In series [4], the “living cell population / hNSC viability” value is reported as “comparable to the biotinilated peptides”.
Take “Biot-GGG(Propylamine)FSSTKT-CONH2 (Biotin-GGG[NHPr]FSSTKT-NH2) [peptide B28]”: the “minimum necessary peptide concentration for gelation” value in series [5] worked out at 3 % w/v. Further, the “cell morphology / degree of spreading” value in series [2] was “proliferated cell clusters”. In series [3], the “solid scaffold / hydrogel formation” value is “yielded solid scaffolds”. In addition, the “living cell population / hNSC viability” value in series [4] is “cell population comparable to those of the other peptides”.
On to “Biot-GGGAFSSTKT-CONH2 (Biotin-GGGAFSSTKT-NH2; SMILES C[C@H](NC(=O)CNC(=O)CNC(=O)CNC(=O)CCCC[C@@H]1SC[C@@H]2NC(=O)N[C@@H]21)C(=O)N[C@@H](Cc1ccccc1)C(=O)N[C@@H](CO)C(=O)N[C@@H](CO)C(=O)N[C@H](C(=O)N[C@@H](CCCCN)C(=O)N[C@H](C(N)=O)[C@@H](C)O)[C@@H](C)O) [B15]”, for which, in series [5], the “storage modulus G′ of assembled scaffold (G′ post-assembling)” value came to 8500 Pa. Besides, the self-healing property result in series [1] was “self-healing property has been seen”. In series [2], the “cell morphology / degree of spreading” value is listed as “branched cells”. The “solid scaffold / hydrogel formation” value in series [3] was “yielded solid scaffolds”. Moreover, the “living cell population / hNSC viability” value in series [4] is on record as “biggest living cell populations, significantly different from negative control”.
For the substance “Biot-GGGAFSSTKTGRGD-CONH2 (Biotin-GGGAFSSTKTGRGD-NH2; SMILES C[C@H](NC(=O)CNC(=O)CNC(=O)CNC(=O)CCCC[C@@H]1SC[C@@H]2NC(=O)N[C@@H]21)C(=O)N[C@@H](Cc1ccccc1)C(=O)N[C@@H](CO)C(=O)N[C@@H](CO)C(=O)N[C@H](C(=O)N[C@@H](CCCCN)C(=O)N[C@H](C(=O)NCC(=O)N[C@@H](CCCNC(=N)N)C(=O)NCC(=O)N[C@@H](CC(=O)O)C(N)=O)[C@@H](C)O)[C@@H](C)O) [B19]”, the “solid scaffold / hydrogel formation” value in series [3] is on record as “yielded solid scaffolds”. Also, the “living cell population / hNSC viability” value in series [4] is given as “significantly different from negative control”.
Consider “Biot-GGGPFSSTDT-CONH2 (Biotin-GGGPFSSTDT-NH2; SMILES C[C@@H](O)[C@H](NC(=O)[C@H](CC(=O)O)NC(=O)[C@@H](NC(=O)[C@H](CO)NC(=O)[C@H](CO)NC(=O)[C@H](Cc1ccccc1)NC(=O)[C@@H]1CCCN1C(=O)CNC(=O)CNC(=O)CNC(=O)CCCC[C@@H]1SC[C@@H]2NC(=O)N[C@@H]21)[C@@H](C)O)C(N)=O) [B10]”, for which the self-assembling on dissolution entry in series [6] is recorded as “immediately self-assembling with dissolution in water”.
The same measure, in the same setting: the result for “Biot-GGGPFSSTET-CONH2 (Biotin-GGGPFSSTET-NH2; SMILES C[C@@H](O)[C@H](NC(=O)[C@H](CCC(=O)O)NC(=O)[C@@H](NC(=O)[C@H](CO)NC(=O)[C@H](CO)NC(=O)[C@H](Cc1ccccc1)NC(=O)[C@@H]1CCCN1C(=O)CNC(=O)CNC(=O)CNC(=O)CCCC[C@@H]1SC[C@@H]2NC(=O)N[C@@H]21)[C@@H](C)O)C(N)=O) [B12]” reads “immediately self-assembling with dissolution in water”.
On to “Biot-GGGPFSSTKT-CONH2 (Biotin-GGGPFSSTKT-NH2; SMILES C[C@@H](O)[C@H](NC(=O)[C@H](CCCCN)NC(=O)[C@@H](NC(=O)[C@H](CO)NC(=O)[C@H](CO)NC(=O)[C@H](Cc1ccccc1)NC(=O)[C@@H]1CCCN1C(=O)CNC(=O)CNC(=O)CNC(=O)CCCC[C@@H]1SC[C@@H]2NC(=O)N[C@@H]21)[C@@H](C)O)C(N)=O) [peptide B3]”, for which, in series [5], the “storage modulus G′ of assembled scaffold (G′ post-assembling)” value was 2917 Pa. Moreover, the “time for G′ of peptide solution to reach a plateau” value in series [5] (dissolved at 3% concentration in water) turned out to be 2 days. Also, the “storage modulus G′ of peptide solution (pre-assembling)” value in series [5] (water solution at day 1, 1%, before PBS) is 67 Pa. In series [1], the self-healing property result is given as “self-healing property has been seen”. The “cell morphology / degree of spreading” value in series [2] was “branched cells”. Moreover, in series [3], the “solid scaffold / hydrogel formation” value is given as “shifting to solid scaffold when exposed to neutral pH buffer; also recorded: yielded solid scaffolds”.
On to “Biot-GGGPFSSTNT-CONH2 (Biotin-GGGPFSSTNT-NH2; SMILES C[C@@H](O)[C@H](NC(=O)[C@H](CC(N)=O)NC(=O)[C@@H](NC(=O)[C@H](CO)NC(=O)[C@H](CO)NC(=O)[C@H](Cc1ccccc1)NC(=O)[C@@H]1CCCN1C(=O)CNC(=O)CNC(=O)CNC(=O)CCCC[C@@H]1SC[C@@H]2NC(=O)N[C@@H]21)[C@@H](C)O)C(N)=O) [B11]”, for which the self-assembling on dissolution entry in series [6] is “immediately self-assembling with dissolution in water”.
Still for that read-out and setting: the result for “Biot-GGGPFSSTQT-CONH2 (Biotin-GGGPFSSTQT-NH2; SMILES C[C@@H](O)[C@H](NC(=O)[C@H](CCC(N)=O)NC(=O)[C@@H](NC(=O)[C@H](CO)NC(=O)[C@H](CO)NC(=O)[C@H](Cc1ccccc1)NC(=O)[C@@H]1CCCN1C(=O)CNC(=O)CNC(=O)CNC(=O)CCCC[C@@H]1SC[C@@H]2NC(=O)N[C@@H]21)[C@@H](C)O)C(N)=O) [B13]” reads “immediately self-assembling with dissolution in water”.

The values above are taken from US8722850B2, “Self-assembling peptides and their use in the formation of hydrogels” (Universita' Degli Studi di Milano Bicocca, priority 2010, dated 2014).
